From patent US20040053365A1 (LUDWIG INSTITUTE FOR CANCER RESEARCH, published 2004)

Biological target: T1, recombinant human GM-CSF (human, UniProt P04141 18-144)
T1 construct: also called rhGM-CSF
Experiment: SPR, BIAcore 2000, 100 RU rhGM-CSF on chip, antibody 1-10 nM, Langmuir 1:1 model

T1 sequence (P04141 18-144 limits assumed): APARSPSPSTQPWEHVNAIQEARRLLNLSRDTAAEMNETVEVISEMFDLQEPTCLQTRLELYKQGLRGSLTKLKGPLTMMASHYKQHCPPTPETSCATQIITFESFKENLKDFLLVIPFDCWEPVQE

B1: chimeric 19/2 anti-human GM-CSF monoclonal antibody (antibody, V domains shown)
VH: EVQLQQSGPELVKPGASVKISCKASGYTFTDYNIHWVKQSHGKSLDWIGYIAPYSGGTGYNQEFKNRATLTVDKSSSTAYMELRSLTSDDSAVYYCARRDRFPYFDYWGQGTTLRVSS
VL: DIVMIQSQKFVSTSVGDRVNITCKASQNVGSNVAWLQQKPGQSPKTLIYSASYRSGRVPDRFTGSGSGTDFILTITTVQSEDLAEYFCQQFNRSPLTFGSGTKLELKR
kon: 510000 M⁻¹ s⁻¹
